Data reported in the nanobody polyreactivity screen of Harvey et al. (2022).

Assay: yeast display, Sf9 membrane polyspecificity reagent, FACS + sequencing; frameworks hold sequencing errors
How it was run: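 A nanobody's polyreactivity label depends on the gate it was sorted from. Yeast display cells were stained with 10% biotinylated, detergent-solubilized Sf9 membrane reagent for 1 hour at 4 °C, enriched on streptavidin microbeads and sorted by FACS. The low and high (top ~1%) gates were set on anti-HA fluorescence for expression and streptavidin fluorescence for reagent binding.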

Row | Sequence | polyreactivity (PSR sort gate)
1 | QVQHVESGGGLVQAGGSLRLSCAAYGFTFVRYAKGWYRQAPGKEREFVASISARGGNTFYADSVKGRFTISRDNAKNTVFLQMNSLKPEDTAVYYCAKRGPYGTGYGYWGQGTQVTVSS | high polyreactivity
2 | QVQLVESGGGLVQAGGSLRLSCAASGRTFRWYAMGWYRQAPGKEMELVAALTFRGGRTYYADSVKGRFTISRDNAKNTVYLQMNSLKPEDTAVYYCNAVTYSSPYRFDYWGQGTQVTVSS | low polyreactivity
3 | QVQLVESGGGLVQAGGSLRLSCAASGSIFWWNAMGWYRQAPGKERELVARITRGGTTYYADSVKGRFTISRDNAKNTVYLQMNSLKPEDTAVYSCNAVSGWSRYDFWGQGSQVTVSS | low polyreactivity
4 | QVQLVESGGGLVQAGGSLRLSCAASGITFRNYAMGWYRPAPGKERELVADITTGGSTYADSVKGRFTISRDNAKNTVYLQMISLKPEDTAVYYCAARYFSYYILRRIYPVREDYWGQGTQVTVSS | low polyreactivity
5 | QVQLVESGGGLVQEGGSLRLSCAASGYIFKYYAMGWYRQAPGKERELVAAIRYSGGITYYADSVKGRFTISRDNAKNTVYLQMQSLKPEDTAVSYCAADYIITYRSGRREYVYWGQGTQVTVSS | high polyreactivity
6 | QVQLVESGGGLVQAGGSLRLSCAASGFIFRRYTMGWYRQAPGKERELVAAISSRGGSTYYADSVKGRFTISRDNAKNTVYLQMNSLKPEDTAVYYCNAGLGVRRRYDYWGQGTQVTVSS | high polyreactivity
7 | QVQLVESGGGLVQAGGSLRLSCAASGRIFWYYGMGWYRQAPGKERELVASIRSGGSTNYADSVKGRFTISRDNAKNSVYLQMNSLKPEDTAVYYCAARPDYRYHYWGQGTQVTVSS | high polyreactivity
8 | QVQLVESGGGLVQAGGSLRLSCAASGRTFSGYVMGWYRQAPGKERELVATINGSGASTYYADSVKGRFTISRDNAKNTVYLQTNSLKPEDTAVYYCAAKRYRPKYEYYYWGQGTQVTVSS | high polyreactivity
9 | QVQLVESGGGLVQAGGSLRLSCAASGRTIFYYAMGWYRQAPGKERELVATITKRGGSTYYADSVKGRFTISRDNAKNTVYLQMNSLKPEDTALYYCAARFVGWRGGRAYYYWGQGTQVTVAS | high polyreactivity
10 | QVQLVESGGGLVQAGGSLRLSCAASGSIFKINAMGWYRQAPGKEREWVAAITRSGGSTYYADSVKGRFTISLDNAKNTVYLQMNSLKPEDTAVYYCNASTSRSTSLSSRFYYWGQGTQVTVSS | high polyreactivity
11 | QVQLQESGGGLVQAGGILRLSCAACGNIFPSAVMGWYRQALGKEREFVATINSGSNTYYADSVKGRFTISRDNAKNTVYLQMNSLKLEDTAVYYCAAYFKLQAWHTYWGQGTQVTVSS | low polyreactivity
12 | QGQLVESGGGLGQAGGSLRLSCGASGRTFDSYAMGWYRPAPGKEREFVAAISYSGTSTYYAVSVTGRFTISRDKAKNTVYLQMNSLIPEDTAVYYCAKEYTFRQWGQGTQVTVSS | low polyreactivity
13 | QVQHVETGGGLVQAGGSHRLSCAASGLIFDYNAMGWYTQAPRKERELDADISSGGSTYYADSVKGRFTISSDNGKNSVYLQMNSLKTEDTAVYYCATRRQAQYTRYYGSRQFYYWGQGTQVTVSS | high polyreactivity
14 | QVQLVESGGGLVQAGGSLRLSCAASGSTFNYYAMGWYRQAPGKERELVARISWSGSTYADSVKGRFTISRDNAKNTVYLQMNSLKPEDTAVYYCAAPYVQKSHRGMDYWGQGTQVTVSS | low polyreactivity
15 | QVQLVESGGGLVQAGGSLRLSCAASGSTIYTYALGWYRQAPGKERELVAAIRGRGGRTYYADSVKGRFTISRDNAKNTVYLQMNSLKPEDTAVYYCNADGYAYYRATTRFDYWGQGTQVTVSS | high polyreactivity
16 | QFQLVESGGGLVHAGGSLRLSCAATGSTLPGYAMGWYRQAPGKERELVAAITSRGGTTYYADSVKGRFTISCDNAKKTVYLQMNSLKPEDTAVYYCAAYTSYASDYWGQGTQVTVSS | high polyreactivity
17 | QVQLLETGGGLVQAGGSLRLSCAPSGSIFDSYAMGWYRQAPGKERELVATINTSGGSTYYADSVKGRFTIHDNAKNTVYLQMNSLKPEDTAVYYCNAGRWDYWQNNFGDYGYWGQGTQVTVSS | low polyreactivity
18 | QVHLVESGGGLVQAGGSLRLSFAASGRTFRGNDMGWYRQAPGKERELVATITRNGGSTRYADSVKGRFTISRDNAKNNVYLQMNSLKPEDSAVYYCNARSRYFGYDYWGQGTQVTVSS | high polyreactivity
19 | QVQLVESGGGLVQAGGSLRLSCAASGLIFKRYAMGWYRQAPGKERELVAAISYSGGSTYYADSVKGRFTISRDNAKNTVYLQMNSLKPEDTAVYYCATVYYHRFDYWGQGTQVTVSS | high polyreactivity
20 | QVQLEESGGGLRQAGGRLRLSCAASGRTFYVNAKGWYRQAPGKERELVAAISWSGGSTYYADSVKGRFTITRDNAKNTVYLQMNSLKPEDTAVYYCAAEDIEVYEYWGQGTQVTVSS | low polyreactivity
21 | QVQLVESGGGIVQAGGSLRLSCAASGLISRVYAMGWSRQAPGKEWELVAAISSGGSTNYADSVKGRFTISRDNAKNTVYLQMNSLKPEETAGYYCAARGRRTGGHYNYWGQGTQETVSS | low polyreactivity
